# Assay results as given in US20160052997A1 (CELLTRION, published 2016).
# Target: HA of A/CA/04/09 (H1N1) virus (Influenza A virus A/CA/04/09 (H1N1))
# Test: cell-based or functional assay
binder,measurement,value
"CT120 (antibody, V domains shown) VH: QVQLVQSGAEVKMPGSSVKVSCKTSGVFFSSHAISWVRQAPGQGLEWMGGISPMFGTTHYAQKFQGRVTITADQSTTTAYMELTSLTSEDTAVYYCARDGAGSYYPLNWFDPWGQGTLVTVSS VL: EIVLTQSPATLSLSPGERATLSCRASENIWNNLAWYQQKPGQAPRLLISGASTGATGVPSRFRGSGSRTEFTLTISSLQSEDFAIYFCQQYNSWPRTFGPGTKVEIKR","EC50, microneutralization test",0.21 µg/mL
